From publication PMC4105859, “Characterization of the SAM domain of the PKD-related protein ANKS6 and its interaction with ANKS3” (BMC Structural Biology, 2014)
Positions count from the first letter of the chain named. In names and notes the source's numbering stands.

T1: ANKS3-SAM F53E
T1 chain: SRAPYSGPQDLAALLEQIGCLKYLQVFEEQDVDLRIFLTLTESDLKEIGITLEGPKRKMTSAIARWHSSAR

T2: ANKS6-SAM wt (human, UniProt Q68DC2 771-840)
T2 chain: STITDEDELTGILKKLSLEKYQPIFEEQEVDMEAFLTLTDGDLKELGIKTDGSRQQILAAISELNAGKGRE

B1: negGFP-ANKS3-SAM fusion protein (domain or fragment, human, UniProt Q6ZW76 421-490, looked up)
chain: RAPYSGPQDLAALLEQIGCLKYLQVFEEQDVDLRIFLTLTESDLKEIGITLFGPKRKMTSAIARWHSSAR
notes: ANKS3 (ankyrin repeat and SAM-domain containing protein 3), human, SAM domain, residues 421-490 of UniProt Q6ZW76; source: ARI814 cells, in lysate (native gel); purified (Ni-NTA, HiTrap Q) for TEM
B2: His6-tagged ANKS3-SAM (domain or fragment, human, UniProt Q6ZW76 421-490, looked up)
chain: B1 chain
notes: ANKS3, human, SAM domain, residues 421-490 of UniProt Q6ZW76; pET28 vector; also called ANKS3-SAM (negGFP removed); ANKS3-SAM precipitate; source: Rosetta(DE3) cells, purified (Ni-NTA); precipitated after purification
B3: His6-tagged ANKS6-SAM (domain or fragment, human, UniProt Q68DC2 771-840, looked up)
chain: TITDEDELTGILKKLSLEKYQPIFEEQEVDMEAFLTLTDGDLKELGIKTDGSRQQILAAISELNAGKGRE
notes: ANKS6, human, SAM domain, residues 771-840 of UniProt Q68DC2; pBAD-HisA vector; source: ARI814 cells, purified (HiTrap IMAC, HiTrap Q)
B4: ANKS3-SAM I36E (domain or fragment)
chain: T1 chain with I36E, E53F

What was measured:
[1] = molecular target: the molecule itself; assay: negative stain transmission electron microscopy; purified protein or its precipitate on carbon/formvar grids, 1% uranyl acetate, 120 kV
His6-tagged ANKS3-SAM = molecular target: B2; assay: resolubilisation of a precipitate; His6-ANKS3-SAM precipitate (3.2 mg/mL dialysed into 20 mM Tris pH 7, 0.25 M NaCl, 1 mM DTT); His6-ANKS6-SAM at 3.3 mg/mL or buffer alone added at 2:1, 1:1, 1:2; 3 h on ice; conditions: both partners purified
ANKS3-SAM F53E = molecular target: T1, ANKS3-SAM F53E; assay: SPR; conditions: chain shown with the change, read off a plot
ANKS3-SAM F53E (human) = assay: SPR; ANKS3-SAM F53E immobilised on CM5 (EDC/NHS), ANKS3-SAM I36E flowed over; Biacore T100, 21°C, 20 mM HEPES pH 7.5, 1 mM DTT, 0.04% IGEPAL CA-630, 0.15 M NaCl; equilibrium, 1:1 steady-state model, triplicate; Kd called an approximation since saturation was not reached
ANKS6-SAM wt [2] = molecular target: T2, ANKS6-SAM wt; assay: SPR; ANKS6-SAM wt immobilised on CM5 (EDC/NHS), ANKS3-SAM I36E flowed over; Biacore T100, 21°C, 20 mM HEPES pH 7.5, 1 mM DTT, 0.04% IGEPAL CA-630, 0.15 M NaCl; equilibrium, 1:1 steady-state model, triplicate
ANKS6-SAM wt [3] = molecular target: T2, ANKS6-SAM wt; assay: SPR; value printed in panel; legend gives 249 nM

B1: binds [1].

B2: binds [1].

B3: binds (His6-tagged ANKS3-SAM).

B4 gave an other: Log (Kd) (ANKS3-SAM F53E; Log [NaCl] est. -0.60) of 4, an other: Log (Kd) (ANKS3-SAM F53E; Log [NaCl] est. -0.70) of 3.9 and an other: Log (Kd) (ANKS3-SAM F53E; Log [NaCl] est. -0.82) of 3.8. It also gave an other: Log (Kd) (ANKS3-SAM F53E; Log [NaCl] est. -1.0) of 3.7, a Kd (ANKS3-SAM F53E (human)) of 5.8 µM and a Kd (ANKS6-SAM wt [2]) of 0.249 µM. It also gave a Kd (ANKS6-SAM wt [3]) of 0.27 µM.
